The series deals with the molecule itself. Description: crystal structure.

B1: GluA2 S1S2 flop (ligand-binding domain of rat GluA2o) (domain or fragment)
chain: GANKTVVVTTILESPYVMMKKNHEMLEGNERYEGYCVDLAAEIAKHCGFKYKLTIVGDGKYGARDADTKIWNGMVGELVYGKADIAIAPLTITLVREEVIDFSKPFMSLGISIMIKKGTPIESAEDLSKQTEIAYGTLDSGSTKEFFRRSKIAVFDKMWTYMRSAEPSVFVRTTAEGVARVRKSKGKYAYLLESTMNEYIEQRKPCDTMKVGGNLDSKGYGIATPKGSSLGNAVNLAVLKLNEQGLLDKLKNKWWYDKGECGS
For B1, the binding result is on record as “binds”.

For the origin of these results see publication PMC3072023 (Biochemistry, 2010).
